B1: Succinate dehydrogenase [ubiquinone] iron-sulfur subunit, mitochondrial (Homo sapiens), P21912 (parent)
chain: MAAVVALSLRRRLPATTLGGACLQASRGAQTAAATAPRIKKFAIYRWDPDKAGDKPHMQTYEVDLNKCGPMVLDALIKIKNEVDSTLTFRRSCREGICGSCAMNINGGNTLACTRRIDTNLNKVSKIYPLPHMYVIKDLVPDLSNFYAQYKSIEPYLKKKDESQEGKQQYLQSIEEREKLDGLYECILCACCSTSCPSYWWNGDKYLGPAVLMQAYRWMIDSRDDFTEERLAKLQDPFSLYRCHTIMNCTRTCPKGLNPGKAIAEIKKMMATYKEKKASV
partner: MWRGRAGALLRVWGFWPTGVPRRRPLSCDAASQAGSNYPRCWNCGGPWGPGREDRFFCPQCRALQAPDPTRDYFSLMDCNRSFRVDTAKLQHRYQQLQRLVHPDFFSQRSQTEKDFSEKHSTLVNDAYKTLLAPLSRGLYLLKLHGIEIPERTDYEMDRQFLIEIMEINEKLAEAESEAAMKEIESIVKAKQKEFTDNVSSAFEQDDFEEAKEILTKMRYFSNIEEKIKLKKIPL

Variants of: B1
Conditions: with hsc20_human HSCB

Row | Variant | effect of a mutation on the interaction
1 | MAAVVALSLRRRLPATTLGGACLQASRGAQTAAATAPRIKKFAIYRWDPDKAGDKPHMQTYEVDLNKCGPMVLDALIKIKNEVDSTLTFRRSCREGICGSCAMNINGGNTLACTRRIDTNLNKVSKIYPLPHMYVIKDLVPDLSNFYAQYKSIEPYLKKKDESQEGKQQYLQSIEEREKLDGLYECILCACCSTSCPSYWWNGDKYLGPAVLMQAYRWMIDSRDDFTEERLAKLQDPFSLYRCHTIMNCTRTCPKGLNPGKAIAEIKKMMATYKEAAASV [K276A;K277A] | disrupting interaction
2 | MAAVVALSLRRRLPATTLGGACLQASRGAQTAAATAPRIKKFAIYRWDPDKAGDKPHMQTYEVDLNKCGPMVLDALIKIKNEVDSTLTFRRSCREGICGSCAMNINGGNTLACTRRIDTNLNKVSKIYPLPHMYVIKDLVPDLSNFYAQYKSIEPYLKKKDESQEGKQQYLQSIEEREKLDGLYECILCACCSTSCPSYWWNGDKYLGPAVLMQAYRWMIDSRDDFTEERLAKLQDPFSLYRCHTIMNCTRTCPKGLNPGKAIAEIAAMMATYKEKKASV [K267A;K268A] | disrupting interaction strength

Variants of: B1
Conditions: with hsc20_human HSCB
Remark: another data set of the same source

Row | Variant | effect of a mutation on the interaction
3 | MAAVVALSLRRRLPATTLGGACLQASRGAQTAAATAPRIKKFAAYRWDPDKAGDKPHMQTYEVDLNKCGPMVLDALIKIKNEVDSTLTFRRSCREGICGSCAMNINGGNTLACTRRIDTNLNKVSKIYPLPHMYVIKDLVPDLSNFYAQYKSIEPYLKKKDESQEGKQQYLQSIEEREKLDGLYECILCACCSTSCPSYWWNGDKYLGPAVLMQAYRWMIDSRDDFTEERLAKLQDPFSLYRCHTIMNCTRTCPKGLNPGKAIAEIKKMMATYKEKKASV [I44A] | disrupting interaction strength

Variants of: B1
Conditions: with hsc20_human HSCB
Remark: another data set of the same source

Row | Variant | effect of a mutation on the interaction
4 | MAAVVALSLRRRLPATTLGGACLQASRGAQTAAATAPRIKKFAIYRWDPDKAGDKPHMQTYEVDLNKCGPMVLDALIKIKNEVDSTLTFRRSCREGICGSCAMNINGGNTLACTRRIDTNLNKVSKIYPLPHMYVIKDLVPDLSNFYAQYKSIEPYLKKKDESQEGKQQYLQSIEEREKLDGLYECILCACCSTSCPSYWWNGDKYLGPAVLMQAYRWMIDSRDDFTEERLAKLQDPFSAYRCHTIMNCTRTCPKGLNPGKAIAEIKKMMATYKEKKASV [L240A] | disrupting interaction strength

— IntAct's records for PubMed 24606901
